Reference: article doi:10.1101/2021.12.06.471490 (bioRxiv, 2021)

Molecular target: yeast tubulin heterodimer, Tub1-WT (internal 6X-His) with Tub2 (S. cerevisiae (budding yeast), UniProt P09733 1-447; P02557 1-457)
Test: pull-down

Sequence of yeast tubulin heterodimer, Tub1-WT (internal 6X-His) with Tub2 (P09733 whole entry, chain 1 of 2): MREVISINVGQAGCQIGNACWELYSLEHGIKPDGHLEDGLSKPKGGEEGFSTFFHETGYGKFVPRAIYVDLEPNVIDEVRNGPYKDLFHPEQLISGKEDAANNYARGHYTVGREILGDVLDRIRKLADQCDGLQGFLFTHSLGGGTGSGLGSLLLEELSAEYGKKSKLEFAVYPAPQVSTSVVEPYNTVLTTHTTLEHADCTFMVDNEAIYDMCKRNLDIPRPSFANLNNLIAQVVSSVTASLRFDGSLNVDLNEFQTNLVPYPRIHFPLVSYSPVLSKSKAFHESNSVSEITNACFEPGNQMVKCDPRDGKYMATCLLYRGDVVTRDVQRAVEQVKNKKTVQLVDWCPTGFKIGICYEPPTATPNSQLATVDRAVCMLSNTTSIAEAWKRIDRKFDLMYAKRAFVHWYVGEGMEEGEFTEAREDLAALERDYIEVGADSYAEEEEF
Sequence of yeast tubulin heterodimer, Tub1-WT (internal 6X-His) with Tub2 (P02557 whole entry, chain 2 of 2): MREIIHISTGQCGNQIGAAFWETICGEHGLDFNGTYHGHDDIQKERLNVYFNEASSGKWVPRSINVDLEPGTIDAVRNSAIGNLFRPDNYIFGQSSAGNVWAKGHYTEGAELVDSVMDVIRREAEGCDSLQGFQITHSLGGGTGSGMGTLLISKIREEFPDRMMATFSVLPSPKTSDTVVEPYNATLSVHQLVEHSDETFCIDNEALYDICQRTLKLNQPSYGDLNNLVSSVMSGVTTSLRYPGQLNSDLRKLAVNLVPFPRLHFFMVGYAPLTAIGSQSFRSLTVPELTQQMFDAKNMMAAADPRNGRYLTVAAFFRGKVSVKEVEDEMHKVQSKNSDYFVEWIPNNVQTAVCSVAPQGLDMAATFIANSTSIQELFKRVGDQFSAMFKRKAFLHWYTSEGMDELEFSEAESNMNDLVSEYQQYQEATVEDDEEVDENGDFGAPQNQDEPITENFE

- binding result: binds
B1: GST-TOG1/2 (the two TOG domains of Stu2 fused to a GST tag; Stu2 1-590) (domain or fragment, S. cerevisiae (budding yeast), UniProt P46675 1-590, looked up)
chain: MSGEEEVDYTTLPLEERLTYKLWKARLEAYKELNQLFRNSVGDISRDDNIQIYWRDPTLFAQYITDSNVVAQEQAIVALNSLIDAFASSSLKNAHNITLISTWTPLLVEKGLTSSRATTKTQSMSCILSLCGLDTSITQSVELVIPFFEKKLPKLIAAAANCVYELMAAFGLTNVNVQTFLPELLKHVPQLAGHGDRNVRSQTMNLIVEIYKVTGNNSDLLEEILFKKLKPIQVKDLHKLFAKVGDEPSSSKMLFEWEKRELEKKRSQEEEARKRKSILSNDEGEYQIDKDGDTLMGMETDMPPSKQQSGVQIDTFSMLPEETILDKLPKDFQERITSSKWKDRVEALEEFWDSVLSQTKKLKSTSQNYSNLLGIYGHIIQKDANIQAVALAAQSVELICDKLKTPGFSKDYVSLVFTPLLDRTKEKKPSVIEAIRKALLTICKYYDPLASSGRNEDMLKDILEHMKHKTPQIRMECTQLFNASMKEEKDGYSTLQRYLKDEVVPIVIQIVNDTQPAIRTIGFESFAILIKIFGMNTFVKTLEHLDNLKRKKIEETVKTLPNFSIASGSTHSTIETNKQTGPMENKFLLK
